Columns and labels:
[1] = target: human HGF-avidin fusion protein with the point mutation hHGFC561R (chicken; human, UniProt P02701 25-152; P14210 32-728, limits assumed); test: avidin fusion protein captured on biotin-coated beads, PE anti-human F(ab')2, FACS
Protocol: (§1) These constructs were expressed and subjected to binding analysis as described in Examples 8C and 8D. […] The resulting bead-protein complexes were labeled by adding FITC labeled anti-avidin antibody (Vector Lab, Burlingame, Calif., Cat. # SP-2040). The presence of antibodies to HGF was determined by adding phycoerythrin (PE) labeled goat anti-human F(ab′)2 antibody (Southern Biotech Associates, Inc, Birmingham, Ala., Cat #2043-09). Those samples were then subjected to Fluorescence Activated Cell Sorter (FACS) analysis. Bead complexes labeled by FITC (which indicated the presence of avidin) and/or PE (which indicated the presence of antibody to HGF) were detected on a Becton Dickinson Bioscience FACScan (BD, Franklin Lakes, N.J.). In some cases, after expression normalization using FITC, single-color FACS analysis was performed following antibody binding by the PE label. This method increased the sensitivity of the assay and aided the measurement of binding with constructs that were not expressed at very high levels.

[2] = target: human HGF-avidin fusion protein with the point mutation hHGFG555E (chicken; human, UniProt P02701 25-152; P14210 32-728, limits assumed); test: as above
Protocol: as §1

[3] = target: human HGF-avidin fusion protein with the point mutation hHGFD592N (chicken; human, UniProt P02701 25-152; P14210 32-728, limits assumed); test: as above
Protocol: as §1

[4] = target: human HGF-avidin fusion protein with the point mutation hHGFN601S (chicken; human, UniProt P02701 25-152; P14210 32-728, limits assumed); test: as above
Protocol: as §1

[5] = target: human HGF-avidin fusion protein with the point mutation hHGFR647Q (chicken; human, UniProt P02701 25-152; P14210 32-728, limits assumed); test: as above
Protocol: as §1

[6] = target: T1, human HGF-avidin fusion protein with a two amino acid insertion (mouse amino acids 540N and 541K) (chicken; human, UniProt P02701 25-152; P14210 32-728, limits assumed); test: as above
T1 construct: also called hHGF DK insertion
Protocol: as §1

[7] = target: T2, human hepatocyte growth factor (HGF) (human, UniProt P14210 32-728); test: neutralization ELISA (right table): inhibition of the binding of soluble Met (2 nM) to plate-coated HGF, detected with biotinylated anti-cMetR antibody and Eu-streptavidin; column head 'IC50 IP (nM)'
T2 construct: Recombinant protein; The mature protein is a heterodimer of the alpha and beta subunits; also called human HGF; full length HGF
Protocol: A neutralization ELISA assay was developed to assess whether the antibodies discussed in Example 6 could interrupt Met-HGF binding. Delphia 96-well plates (Cat#: AAAND-0001, Wallac Inc., Gaithersburg, Md.) were coated with HGF by adding 100 μl of HGF at 6.25 μg/ml per well. The plates were incubated at 37° C. for 1 hour or at 4° C. overnight. The plates were then blocked with 5% BSA (Cat#50-61-00, KPL, Gaithersburg, Md.) in PBS containing 0.1% Tween 20 for 1 hour at room temperature with shaking.
Test samples were prepared by separately mixing soluble Met (2 nM, 0.256 μg/ml) with different concentrations of a particular antibody to HGF being tested. The concentrations tested were: 667 nM, 223 nM, 74.1 nM, 24.7 nM, 8.2 nM, 2.7 nM, 0.91 nM, 0.30 nM, 0.10 nM, and 0.034 nM. A volume of 100 μl of a test sample was added to each well of the plates. The plates were then incubated at 4° C. overnight and then washed 4 times with PBS containing 0.1% Tween 20. Next, 100 μl per well of Biotinylated anti-cMetR antibody (Cat#: BAF358, R&D Systems Inc., Minneapolis, Minn.) at 2 μg/ml, was added. […] The plates were then incubated for 2 hours with shaking, and were washed 4 times with PBS containing 0.1% Tween 20. Eu-streptavidin (1:1000 dilution in Assay buffer) (Cat#1244-360, Wallac Inc., Gaithersburg, Md.) was added and the plates were shaken at room temperature for 1 hour. The plates were then washed 4 times with PBS containing 0.1% Tween 20. Next, 100 μl of enhancement buffer (Wallac Inc., Cat#: 1244-105, Gaithersburg, Md.) was added. After at least for 5 minutes, the plates were read using Europium method on Victor 2 (1420 Multilabel Counter, Wallac Inc., Gaithersburg, Md.).
Percent inhibition of Met binding to HGF (i.e. neutralization) was calculated and IC₅₀ values were determined using the 4 parameter fit equation Excelfit, Version 2.0.6, (Microsoft Inc, Seattle, Wash.). In the presence of the antibodies to HGF discussed in Examples 6, Met binding to HGF was neutralized.

T1 sequence (P02701 other isoform, or with tags, fused parts or gaps limits assumed): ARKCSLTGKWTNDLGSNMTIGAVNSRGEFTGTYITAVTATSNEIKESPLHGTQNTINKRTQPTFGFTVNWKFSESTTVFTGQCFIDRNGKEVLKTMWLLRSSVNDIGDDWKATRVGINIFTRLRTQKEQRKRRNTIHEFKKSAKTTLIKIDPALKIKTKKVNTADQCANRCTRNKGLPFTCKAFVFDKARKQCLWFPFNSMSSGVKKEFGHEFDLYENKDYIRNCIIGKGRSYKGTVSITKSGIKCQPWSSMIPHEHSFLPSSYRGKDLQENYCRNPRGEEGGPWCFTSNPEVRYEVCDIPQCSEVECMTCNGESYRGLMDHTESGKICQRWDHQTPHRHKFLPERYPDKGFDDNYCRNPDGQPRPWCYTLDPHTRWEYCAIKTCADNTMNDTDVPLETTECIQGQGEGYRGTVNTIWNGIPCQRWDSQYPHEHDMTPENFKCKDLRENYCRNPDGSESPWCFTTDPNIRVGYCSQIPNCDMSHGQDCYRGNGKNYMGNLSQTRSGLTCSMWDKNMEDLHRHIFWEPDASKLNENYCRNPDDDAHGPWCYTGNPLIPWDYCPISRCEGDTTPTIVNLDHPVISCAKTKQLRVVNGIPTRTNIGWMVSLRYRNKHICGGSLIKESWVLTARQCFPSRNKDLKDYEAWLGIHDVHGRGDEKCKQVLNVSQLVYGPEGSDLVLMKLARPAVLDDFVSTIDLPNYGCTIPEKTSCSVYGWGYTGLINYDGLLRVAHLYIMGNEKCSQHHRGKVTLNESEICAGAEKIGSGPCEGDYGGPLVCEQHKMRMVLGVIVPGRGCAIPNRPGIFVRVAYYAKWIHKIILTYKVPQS
human HGF-avidin fusion protein with the point mutation hHGFG555E, sequence (P02701 other isoform, or with tags, fused parts or gaps limits assumed): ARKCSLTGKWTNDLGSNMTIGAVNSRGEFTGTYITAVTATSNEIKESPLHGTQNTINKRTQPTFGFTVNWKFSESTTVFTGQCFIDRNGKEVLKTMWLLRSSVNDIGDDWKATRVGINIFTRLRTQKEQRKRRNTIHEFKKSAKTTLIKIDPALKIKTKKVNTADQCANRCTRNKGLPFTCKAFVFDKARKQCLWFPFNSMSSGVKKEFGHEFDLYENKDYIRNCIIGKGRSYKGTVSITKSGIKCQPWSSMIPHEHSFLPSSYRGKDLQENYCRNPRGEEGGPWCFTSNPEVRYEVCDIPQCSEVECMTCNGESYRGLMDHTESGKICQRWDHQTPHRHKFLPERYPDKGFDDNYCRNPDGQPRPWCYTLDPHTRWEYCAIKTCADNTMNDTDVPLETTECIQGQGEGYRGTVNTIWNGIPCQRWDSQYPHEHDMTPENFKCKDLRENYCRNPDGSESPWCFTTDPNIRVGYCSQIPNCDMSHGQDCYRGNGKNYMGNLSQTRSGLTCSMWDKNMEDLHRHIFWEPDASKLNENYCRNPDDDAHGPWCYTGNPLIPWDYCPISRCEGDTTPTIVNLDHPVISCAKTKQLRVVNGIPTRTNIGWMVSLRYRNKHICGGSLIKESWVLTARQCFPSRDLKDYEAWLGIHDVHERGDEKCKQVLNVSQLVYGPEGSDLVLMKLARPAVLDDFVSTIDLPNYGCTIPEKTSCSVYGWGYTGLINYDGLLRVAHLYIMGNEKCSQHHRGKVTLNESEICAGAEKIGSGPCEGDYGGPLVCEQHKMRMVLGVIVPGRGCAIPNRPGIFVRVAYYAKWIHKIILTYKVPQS
human HGF-avidin fusion protein with the point mutation hHGFN601S, sequence (P02701 other isoform, or with tags, fused parts or gaps limits assumed): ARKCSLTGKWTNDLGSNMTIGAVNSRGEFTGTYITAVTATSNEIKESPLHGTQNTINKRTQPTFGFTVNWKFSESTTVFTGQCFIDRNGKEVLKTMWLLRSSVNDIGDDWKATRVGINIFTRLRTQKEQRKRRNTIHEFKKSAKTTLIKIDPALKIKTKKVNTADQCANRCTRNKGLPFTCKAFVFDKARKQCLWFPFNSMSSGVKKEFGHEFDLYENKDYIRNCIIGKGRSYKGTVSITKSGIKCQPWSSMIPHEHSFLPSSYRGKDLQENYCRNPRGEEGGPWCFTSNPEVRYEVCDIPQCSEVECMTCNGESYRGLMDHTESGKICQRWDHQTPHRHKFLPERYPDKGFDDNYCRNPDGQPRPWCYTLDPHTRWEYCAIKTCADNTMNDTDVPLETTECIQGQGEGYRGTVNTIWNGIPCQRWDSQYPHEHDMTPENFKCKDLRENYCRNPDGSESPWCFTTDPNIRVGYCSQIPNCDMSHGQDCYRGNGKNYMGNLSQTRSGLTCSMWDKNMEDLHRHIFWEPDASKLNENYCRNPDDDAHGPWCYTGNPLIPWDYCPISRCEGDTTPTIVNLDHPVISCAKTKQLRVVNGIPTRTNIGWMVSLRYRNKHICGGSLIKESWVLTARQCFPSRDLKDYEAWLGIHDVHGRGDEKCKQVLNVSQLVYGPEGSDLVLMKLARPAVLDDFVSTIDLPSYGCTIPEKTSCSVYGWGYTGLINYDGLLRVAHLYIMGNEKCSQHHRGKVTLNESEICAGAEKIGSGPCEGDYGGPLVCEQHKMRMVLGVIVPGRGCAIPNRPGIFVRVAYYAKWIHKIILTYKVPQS
human HGF-avidin fusion protein with the point mutation hHGFR647Q, sequence (P02701 other isoform, or with tags, fused parts or gaps limits assumed): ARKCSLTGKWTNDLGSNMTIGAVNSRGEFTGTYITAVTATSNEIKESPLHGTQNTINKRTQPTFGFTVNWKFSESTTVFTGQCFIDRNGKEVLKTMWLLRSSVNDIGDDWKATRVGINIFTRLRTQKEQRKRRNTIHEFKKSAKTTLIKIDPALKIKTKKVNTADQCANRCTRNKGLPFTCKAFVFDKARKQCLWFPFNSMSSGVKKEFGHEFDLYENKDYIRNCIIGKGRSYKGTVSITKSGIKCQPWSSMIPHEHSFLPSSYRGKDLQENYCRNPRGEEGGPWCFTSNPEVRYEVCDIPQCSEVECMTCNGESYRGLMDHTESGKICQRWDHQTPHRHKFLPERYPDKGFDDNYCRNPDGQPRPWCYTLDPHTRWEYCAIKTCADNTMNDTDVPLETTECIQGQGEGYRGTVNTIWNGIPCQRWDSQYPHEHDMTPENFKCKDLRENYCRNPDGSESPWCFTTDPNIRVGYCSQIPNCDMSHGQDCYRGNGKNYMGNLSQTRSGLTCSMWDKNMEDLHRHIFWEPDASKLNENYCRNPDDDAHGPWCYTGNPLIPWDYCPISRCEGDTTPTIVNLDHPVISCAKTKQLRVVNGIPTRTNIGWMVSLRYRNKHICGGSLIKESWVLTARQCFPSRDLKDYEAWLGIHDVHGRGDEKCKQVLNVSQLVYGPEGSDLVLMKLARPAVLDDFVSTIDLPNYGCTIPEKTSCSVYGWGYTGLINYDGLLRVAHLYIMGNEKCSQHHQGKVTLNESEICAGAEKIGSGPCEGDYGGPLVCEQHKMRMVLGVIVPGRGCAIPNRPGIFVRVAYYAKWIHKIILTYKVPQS
human HGF-avidin fusion protein with the point mutation hHGFD592N, sequence (P02701 other isoform, or with tags, fused parts or gaps limits assumed): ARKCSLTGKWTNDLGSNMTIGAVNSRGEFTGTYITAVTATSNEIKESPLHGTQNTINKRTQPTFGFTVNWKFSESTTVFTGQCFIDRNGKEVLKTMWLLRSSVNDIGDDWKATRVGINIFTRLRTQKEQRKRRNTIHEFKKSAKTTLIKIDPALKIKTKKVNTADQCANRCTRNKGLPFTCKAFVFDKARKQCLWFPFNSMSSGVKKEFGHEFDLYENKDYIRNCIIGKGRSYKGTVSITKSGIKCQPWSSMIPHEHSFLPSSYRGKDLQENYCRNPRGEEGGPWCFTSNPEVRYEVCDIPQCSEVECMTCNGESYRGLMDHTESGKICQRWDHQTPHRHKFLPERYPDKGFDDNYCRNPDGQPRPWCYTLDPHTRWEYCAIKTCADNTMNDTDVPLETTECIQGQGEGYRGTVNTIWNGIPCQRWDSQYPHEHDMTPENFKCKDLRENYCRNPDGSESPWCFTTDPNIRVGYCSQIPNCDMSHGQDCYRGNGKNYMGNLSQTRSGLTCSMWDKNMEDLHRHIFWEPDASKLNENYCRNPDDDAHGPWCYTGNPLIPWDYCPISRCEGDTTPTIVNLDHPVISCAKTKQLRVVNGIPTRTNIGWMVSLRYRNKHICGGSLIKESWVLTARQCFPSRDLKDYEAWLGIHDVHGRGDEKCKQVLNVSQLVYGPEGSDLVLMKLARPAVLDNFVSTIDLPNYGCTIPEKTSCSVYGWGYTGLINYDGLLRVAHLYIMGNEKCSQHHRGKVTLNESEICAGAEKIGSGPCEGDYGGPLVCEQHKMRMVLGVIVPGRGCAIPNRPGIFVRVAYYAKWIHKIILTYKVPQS
human HGF-avidin fusion protein with the point mutation hHGFC561R, sequence (P02701 other isoform, or with tags, fused parts or gaps limits assumed): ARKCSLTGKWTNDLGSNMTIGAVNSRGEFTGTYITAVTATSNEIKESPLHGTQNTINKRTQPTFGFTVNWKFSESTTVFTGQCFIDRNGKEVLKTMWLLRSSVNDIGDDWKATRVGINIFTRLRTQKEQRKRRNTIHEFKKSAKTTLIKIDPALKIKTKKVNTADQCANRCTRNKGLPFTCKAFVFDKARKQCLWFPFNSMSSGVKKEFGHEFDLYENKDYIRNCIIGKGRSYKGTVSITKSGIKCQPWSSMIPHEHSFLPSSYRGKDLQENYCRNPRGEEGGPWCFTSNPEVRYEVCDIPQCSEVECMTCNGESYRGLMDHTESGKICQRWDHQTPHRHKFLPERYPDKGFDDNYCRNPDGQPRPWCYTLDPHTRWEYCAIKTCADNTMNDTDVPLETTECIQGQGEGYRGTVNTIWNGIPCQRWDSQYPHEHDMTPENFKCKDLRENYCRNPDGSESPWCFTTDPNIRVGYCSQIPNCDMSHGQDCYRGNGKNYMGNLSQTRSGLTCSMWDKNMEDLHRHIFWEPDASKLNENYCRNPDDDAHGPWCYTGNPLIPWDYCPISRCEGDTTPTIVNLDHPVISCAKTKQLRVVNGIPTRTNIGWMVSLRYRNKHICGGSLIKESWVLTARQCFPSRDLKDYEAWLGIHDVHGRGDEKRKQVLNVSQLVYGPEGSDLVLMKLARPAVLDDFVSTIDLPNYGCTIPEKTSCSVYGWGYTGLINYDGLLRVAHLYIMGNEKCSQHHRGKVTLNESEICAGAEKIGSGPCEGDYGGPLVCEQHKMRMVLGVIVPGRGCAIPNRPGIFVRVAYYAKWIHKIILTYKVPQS

Row | Binder | binding result [1] | binding result [2] | binding result [3] | binding result [4] | binding result [5] | binding result [6] | IC50 [7]
1 | antibody 2.12.1 (antibody, human IgG2, kappa, V domains shown) VH: QVQLQESGPGLVKPSETLSLTCTVSGGSISIYYWSWIRQPPGKGLEWIGYVYYSGSTNYNPSLKSRVTISVDTSKNQFSLKLNSVTAADTAVYYCARGGYDFWSGYFDYWGQGTLVTVSS VL: not shown | no binding | no binding | binds | binds | binds | no binding | 0.52 nM
2 | antibody 2.4.4 (antibody, human IgG2, kappa, V domains shown, also called FITC-labeled antibody 2.4.4) VH: QVQLKESGPGLVKPSQTLSLTCTVSGGSISSGVYYWSWIRQHPGKGLEWIGYFYYSGNTYHNPSLKSRVTISVDTSKNQFSLKLSSVTAADTAVYYCARDRSGYDHPDAFDIWGQGTMVTVSS VL: not shown | no binding | binds | binds | binds | binds | no binding | 

From US20140154243A1 (Amgen, published 2014)
